Assay results: the supplement of paper PMC5998384

What was measured:
[1] = tested on: HeLa Kyoto; experiment: thermal stability score vs G1/S (z-score of summed log2 fold changes over temperatures); higher = more thermally stable than in G1/S
[2] = tested on: HeLa Kyoto; experiment: solubility in G1/S (NP-40 vs SDS abundance) (log2 ratio); higher = more soluble; details: cell cycle stage: G1/S
[3] = tested on: HeLa Kyoto; experiment: solubility change mitosis vs G1/S (difference of NP-40 vs SDS log2 ratios) (log2 ratio difference); higher = more soluble in mitosis
[4] = cell cycle stage: early G1 (4.5 h after nocodazole release)
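For solubility change mitosis vs G1/S (difference of NP-40 vs SDS log2 ratios) in this document: synchronized HeLa Kyoto cells (double thymidine block for G1/S, nocodazole release for mitosis), protein amounts in NP-40 versus SDS lysates quantified by mass spectrometry, three biological replicates.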
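For solubility in G1/S (NP-40 vs SDS abundance) in this document: HeLa Kyoto cells arrested at G1/S by double thymidine block, proteins quantified by TMT10plex mass spectrometry in mild NP-40 versus SDS extracts, three biological replicates.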
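For thermal stability score vs G1/S (z-score of summed log2 fold changes over temperatures) in this document: synchronized HeLa Kyoto cells, proteins quantified by TMT10plex mass spectrometry, three biological replicates, mitosis taken 0.5 h after nocodazole release, G1/S directly after double thymidine block.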

Sequence	thermal stability score [1, 4]	thermal stability score ([1]; cell cycle stage: mitosis)	solubility in G1/S (log2) [2]	solubility change mitosis (log2) [3]
MAGENFATPFHGHVGRGAFSDVYEPAEDTFLLLDALEAAAAELAGVEICLEVGSGSGVVSAFLASMIGPQALYMCTDINPEAAACTLETARCNKVHIQPVITDLVKGLLPRLTEKVDLLVFNPPYVVTPPQEVGSHGIEAAWAGGRNGREVMDRFFPLVPDLLSPRGLFYLVTIKENNPEEILKIMKTKGLQGTTALSRQAGQETLSVLKFTKS [N6AMT1]	0.341	0.273	0.483	0.0523
MGFGSDLKNSHEAVLKLQDWELRLLETVKKFMALRIKSDKEYASTLQNLCNQVDKESTVQMNYVSNVSKSWLLMIQQTEQLSRIMKTHAEDLNSGPLHRLTMMIKDKQQVKKSYIGVHQQIEAEMIKVTKTELEKLKCSYRQLIKEMNSAKEKYKEALAKGKETEKAKERYDKATMKLHMLHNQYVLALKGAQLHQNQYYDITLPLLLDSLQKMQEEMIKALKGIFDEYSQITSLVTEEIVNVHKEIQMSVEQIDPSTEYNNFIDVHRTTAAKEQEIEFDTSLLEENENLQANEIMWNNLTAESLQVMLKTLAEELMQTQQMLLNKEEAVLELEKRIEESSETCEKKSDIVLLLSQKQALEELKQSVQQLRCTEAKFSAQKELLEQKVQENDGKEPPPVVNYEEDARSVTSMERKERLSKFESIRHSIAGIIRSPKSALGSSALSDMISISEKPLAEQDWYHGAIPRIEAQELLKKQGDFLVRESHGKPGEYVLSVYSDGQRRHFIIQYVDNMYRFEGTGFSNIPQLIDHHYTTKQVITKKSGVVLLNPIPKDKKWILSHEDVILGELLGKGNFGEVYKGTLKDKTSVAVKTCKEDLPQELKIKFLQEAKILKQYDHPNIVKLIGVCTQRQPVYIIMELVSGGDFLTFLRRKKDELKLKQLVKFSLDAAAGMLYLESKNCIHRDLAARNCLVGENNVLKISDFGMSRQEDGGVYSSSGLKQIPIKWTAPEALNYGRYSSESDVWSFGILLWETFSLGVCPYPGMTNQQAREQVERGYRMSAPQHCPEDISKIMMKCWDYKPENRPKFSELQKELTIIKRKLT [FER]	-0.138	-0.342	-0.0779	-0.106
MSTEGGGRRCQAQVSRRISFSASHRLYSKFLSDEENLKLFGKCNNPNGHGHNYKVVVTVHGEIDPATGMVMNLADLKKYMEEAIMQPLDHKNLDMDVPYFADVVSTTENVAVYIWDNLQKVLPVGVLYKVKVYETDNNIVVYKGE [PTS]	-0.38	-1.87	0.154	-0.182
MAAVVAATALKGRGARNARVLRGILAGATANKASHNRTRALQSHSSPEGKEEPEPLSPELEYIPRKRGKNPMKAVGLAWYSLYTRTWLGYLFYRQQLRRARNRYPKGHSKTQPRLFNGVKVLPIPVLSDNYSYLIIDTQAQLAVAVDPSDPRAVQASIEKEGVTLVAILCTHKHWDHSGGNRDLSRRHRDCRVYGSPQDGIPYLTHPLCHQDVVSVGRLQIRALATPGHTQGHLVYLLDGEPYKGPSCLFSGDLLFLSGCGRTFEGNAETMLSSLDTVLGLGDDTLLWPGHEYAEENLGFAGVVEPENLARERKMQWVQRQRLERKGTCPSTLGEERSYNPFLRTHCLALQEALGPGPGPTGDDDYSRAQLLEELRRLKDMHKSK [PNKD]	0.265	-0.394	-0.0413	-0.135
MSSEMLPAFIETSNVDKKQGINEDQEESQKPRLGEGCEPISKRQMKKLIKQKQWEEQRELRKQKRKEKRKRKKLERQCQMEPNSDGHDRKRVRRDVVHSTLRLIIDCSFDHLMVLKDIKKLHKQIQRCYAENRRALHPVQFYLTSHGGQLKKNMDENDKGWVNWKDIHIKPEHYSELIKKEDLIYLTSDSPNILKELDESKAYVIGGLVDHNHHKGLTYKQASDYGINHAQLPLGNFVKMNSRKVLAVNHVFEIILEYLETRDWQEAFFTILPQRKGAVPTDKACESASHDNQSVRMEEGGSDSDSSEEEYSRNELDSPHEEKQDKENHTESTVNSLPH [TRMT10A]	0.883	0.552	-0.0218	-0.0488
MAAPAPGAGAASGGAGCSGGGAGAGAGSGSGAAGAGGRLPSRVLELVFSYLELSELRSCALVCKHWYRCLHGDENSEVWRSLCARSLAEEALRTDILCNLPSYKAKIRAFQHAFSTNDCSRNVYIKKNGFTLHRNPIAQSTDGARTKIGFSEGRHAWEVWWEGPLGTVAVIGIATKRAPMQCQGYVALLGSDDQSWGWNLVDNNLLHNGEVNGSFPQCNNAPKYQIGERIRVILDMEDKTLAFERGYEFLGVAFRGLPKVCLYPAVSAVYGNTEVTLVYLGKPLDG [FBXO45]	-0.0815	-0.292	0.344	-0.17
MSQYTEKEPAAMDQESGKAVWPKPAGGYQTITGRRYGRRHAYVSFKPCMTRHERSLGRAGDDYEVLELDDVPKENSSGSSPLDQVDSSLPSEPIFEKSETEIPTCGSALNQTTESSQSFVAVHHSEEGRDTLGSSTNLHNHSEGEYIPGACSASSVQNGIALVHTDSYDPDGKHGEDNDHLQLSAEVVEGSRYQESLGNTVFELENREAEAYTGLSPPVPSFNCEVRDEFEELDSVPLVKSSAGDTEFVHQNSQEIQRSSQDEMVSTKQQNNTSQERQTEHSPEDAACGPGHICSEQNTNDREKNHGSSPEQVVRPKVRKLISSSQVDQETGFNRHEAKQRSVQRWREALEVEESGSDDLLIKCEEYDGEHDCMFLDPPYSRVITQRETENNQMTSESGATAGRQEVDNTFWNGCGDYYQLYDKDEDSSECSDGEWSASLPHRFSGTEKDQSSSDESWETLPGKDENEPELQSDSSGPEEENQELSLQEGEQTSLEEGEIPWLQYNEVNESSSDEGNEPANEFAQPAFMLDGNNNLEDDSSVSEDLDVDWSLFDGFADGLGVAEAISYVDPQFLTYMALEERLAQAMETALAHLESLAVDVEVANPPASKESIDGLPETLVLEDHTAIGQEQCCPICCSEYIKDDIATELPCHHFFHKPCVSIWLQKSGTCPVCRRHFPPAVIEASAAPSSEPDPDAPPSNDSIAEAP [PJA2]	-3.9	-1.5	-0.111	0.121
MEDSQDLNEQSVKKTCTESDVSQSQNSRSMEMQDLASPHTLVGGGDTPGSSKLEKSNLSSTSVTTNGTGGENMTVLNTADWLLSCNTPSSATMSLLAVKTEPLNSSETTATTGDGALDTFTGSVITSSGYSPRSAHQYSPQLYPSKPYPHILSTPAAQTMSAYAGQTQYSGMQQPAVYTAYSQTGQPYSLPTYDLGVMLPAIKTESGLSQTQSPLQSGCLSYSPGFSTPQPGQTPYSYQMPGSSFAPSSTIYANNSVSNSTNFSGSQQDYPSYTAFGQNQYAQYYSASTYGAYMTSNNTADGTPSSTSTYQLQESLPGLTNQPGEFDTMQSPSTPIKDLDERTCRSSGSKSRGRGRKNNPSPPPDSDLERVFVWDLDETIIVFHSLLTGSYAQKYGKDPPMAVTLGLRMEEMIFNLADTHLFFNDLEECDQVHIDDVSSDDNGQDLSTYSFATDGFHAAASSANLCLPTGVRGGVDWMRKLAFRYRRVKELYNTYKNNVGGLLGPAKRDAWLQLRAEIEGLTDSWLTNALKSLSIISTRSNCINVLVTTTQLIPALAKVLLYSLGGAFPIENIYSATKIGKESCFERIMQRFGRKVVYVVIGDGVEEEQAAKKHNMPFWRISSHSDLLALHQALELEYL [EYA4]	–	–	-0.147	-0.16
MGIWQRLLLFGGVSLRAGGGATAPLGGSRAMVCGRQLSGAGSETLKQRRTQIMSRGLPKQKPIEGVKQVIVVASGKGGVGKSTTAVNLALALAANDSSKAIGLLDVDVYGPSVPKMMNLKGNPELSQSNLMRPLLNYGIACMSMGFLVEESEPVVWRGLMVMSAIEKLLRQVDWGQLDYLVVDMPPGTGDVQLSVSQNIPITGAVIVSTPQDIALMDAHKGAEMFRRVHVPVLGLVQNMSVFQCPKCKHKTHIFGADGARKLAQTLGLEVLGDIPLHLNIREASDTGQPIVFSQPESDEAKAYLRIAVEVVRRLPSPSE [NUBPL]	–	–	0.45	0.138
MAESGGSSGGAGGGGAFGAGPGPERPNSTADKNGALKCTFSAPSHSTSLLQGLATLRAQGQLLDVVLTINREAFPAHKVVLAACSDYFRAMFTGGMREASQDVIELKGVSARGLRHIIDFAYSAEVTLDLDCVQDVLGAAVFLQMLPVVELCEEFLKAAMSVETCLNIGQMATTFSLASLRESVDAFTFRHFLQIAEEEDFLRLPLERLVFFLQSNRLQSCAEIDLFRAAVRWLQHDPARRPRASHVLCHIRFPLMQSSELVDSVQTLDIMVEDVLCRQYLLEAFNYQVLPFRQHEMQSPRTAVRSDVPSLVTFGGTPYTDSDRSVSSKVYQLPEPGARHFRELTEMEVGCSHTCVAVLDNFVYVAGGQHLQYRSGEGAVDACYRYDPHLNRWLRLQAMQESRIQFQLNVLCGMVYATGGRNRAGSLASVERYCPRRNEWGYACSLKRRTWGHAGAASGGRLYISGGYGISVEDKKALHCYDPVADQWEFKAPMSEPRVLHAMVGAGGRIYALGGRMDHVDRCFDVLAVEYYVPETDQWTSVSPMRAGQSEAGCCLLERKIYIVGGYNWRLNNVTGIVQVYNTDTDEWERDLHFPESFAGIACAPVLLPRAGTRR [KLHL26]	–	–	-0.0553	-0.0565
MKLHCEVEVISRHLPALGLRNRGKGVRAVLSLCQQTSRSQPPVRAFLLISTLKDKRGTRYELRENIEQFFTKFVDEGKATVRLKEPPVDICLSKAISSSLKGFLSAMRLAHRGCNVDTPVSTLTPVKTSEFENFKTKMVITSKKDYPLSKNFPYSLEHLQTSYCGLVRVDMRMLCLKSLRKLDLSHNHIKKLPATIGDLIHLQELNLNDNHLESFSVALCHSTLQKSLRSLDLSKNKIKALPVQFCQLQELKNLKLDDNELIQFPCKIGQLINLRFLSAARNKLPFLPSEFRNLSLEYLDLFGNTFEQPKVLPVIKLQAPLTLLESSARTILHNRIPYGSHIIPFHLCQDLDTAKICVCGRFCLNSFIQGTTTMNLHSVAHTVVLVDNLGGTEAPIISYFCSLGCYVNSSDMLK [PPIL5]	–	–	-0.0487	-0.0159
MSRSGAAAEKADSRQRPQMKVNEYKENQNIAYVSLRPAQTTVLIKTAKVYLAPFSLSNYQLDQLMCPKSLSEKNSNNEVACKKTKIKKTCRRIIPPKMKNTSSKAESTLQNSSSAVHTESNKLQPKRTADAMNLSVDVESSQDGDSDEDTTPSLDFSGLSPYERKRLKNISENADFFASLQLSESAARLREMIEKRQPPKSKRKKPKRENGIGCRRSMRLLKVDPSGVSLPAAPTPPTLVADETPLLPPGPLEMTSENQEDNNERFKGFLHTWAGMSKPSSKNTEKGLSSIKSYKANLNGMVISEDTVYKVTTGPIFSMALHPSETRTLVAVGAKFGQVGLCDLTQQPKEDGVYVFHPHSQPVSCLYFSPANPAHILSLSYDGTLRCGDFSRAIFEEVYRNERSSFSSFDFLAEDASTLIVGHWDGNMSLVDRRTPGTSYEKLTSSSMGKIRTVHVHPVHRQYFITAGLRDTHIYDARRLNSRRSQPLISLTEHTKSIASAYFSPLTGNRVVTTCADCNLRIFDSSCISSKIPLLTTIRHNTFTGRWLTRFQAMWDPKQEDCVIVGSMAHPRRVEIFHETGKRVHSFGGEYLVSVCSINAMHPTRYILAGGNSSGKIHVFMNEKSC [WDR76]	–	–	-1.61	1.15
MAVTAQAARRKERVLCLFDVDGTLTPARQKIDPEVAAFLQKLRSRVQIGVVGGSDYCKIAEQLGDGDEVIEKFDYVFAENGTVQYKHGRLLSKQTIQNHLGEELLQDLINFCLSYMALLRLPKKRGTFIEFRNGMLNISPIGRSCTLEERIEFSELDKKEKIREKFVEALKTEFAGKGLRFSRGGMISFDVFPEGWDKRYCLDSLDQDSFDTIHFFGNETSPGGNDFEIFADPRTVGHSVVSPQDTVQRCREIFFPETAHEA [PMM1]	–	–	0.195	0.102
